In patent US20250115669A1, “FGFR1/KLB Targeting Agonistic Antigen-Binding Proteins and Conjugates Thereof with GLP-1R Agonistic Peptides” (SANOFI, priority 2020, published 2025):
Substitutions are numbered along the chain they refer to. Names and notes keep the numbering of the source.

T1: human beta-Klotho (Homo sapiens, UniProt Q86Z14)
T1 sequence (Q86Z14 1-1044): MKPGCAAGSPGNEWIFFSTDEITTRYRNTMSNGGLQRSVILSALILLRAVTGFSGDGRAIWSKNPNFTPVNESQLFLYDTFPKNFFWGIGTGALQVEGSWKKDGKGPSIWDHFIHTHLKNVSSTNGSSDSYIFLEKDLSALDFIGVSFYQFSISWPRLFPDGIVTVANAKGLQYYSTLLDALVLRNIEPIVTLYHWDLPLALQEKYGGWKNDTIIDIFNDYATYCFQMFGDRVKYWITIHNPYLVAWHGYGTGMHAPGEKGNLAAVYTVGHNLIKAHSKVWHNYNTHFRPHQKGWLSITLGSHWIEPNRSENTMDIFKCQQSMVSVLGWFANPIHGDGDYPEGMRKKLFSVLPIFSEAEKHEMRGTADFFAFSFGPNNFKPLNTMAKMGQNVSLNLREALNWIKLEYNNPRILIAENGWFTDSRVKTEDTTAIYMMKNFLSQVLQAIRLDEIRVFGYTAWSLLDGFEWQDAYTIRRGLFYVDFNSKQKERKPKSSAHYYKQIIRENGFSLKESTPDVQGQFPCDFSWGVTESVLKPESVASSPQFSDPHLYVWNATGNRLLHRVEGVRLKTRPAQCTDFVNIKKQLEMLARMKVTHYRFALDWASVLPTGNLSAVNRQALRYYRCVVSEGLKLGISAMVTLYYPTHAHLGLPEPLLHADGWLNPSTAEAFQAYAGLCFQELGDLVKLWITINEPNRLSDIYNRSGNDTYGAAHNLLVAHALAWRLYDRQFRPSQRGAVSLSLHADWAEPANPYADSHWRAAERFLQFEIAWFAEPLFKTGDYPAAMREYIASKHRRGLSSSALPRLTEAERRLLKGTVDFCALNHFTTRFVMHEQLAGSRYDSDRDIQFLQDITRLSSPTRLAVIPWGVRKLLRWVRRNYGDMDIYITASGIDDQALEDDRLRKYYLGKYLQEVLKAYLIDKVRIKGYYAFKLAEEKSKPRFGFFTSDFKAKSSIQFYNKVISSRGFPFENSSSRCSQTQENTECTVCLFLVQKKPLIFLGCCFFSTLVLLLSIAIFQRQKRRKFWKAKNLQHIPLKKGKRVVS

B1: Ab0370: IgG4 PE; 16H7 VL (Y48del, W90H); 16H7 VH (M34V, H52W, I83T, D109E) (antibody)
VH: QVTLKESGPVLVKPTETLTLTCTVSGFSLNNARVGVSWIRQPPGKALEWLAWIFSNDEKSYSTSLKSRLTISKDTSKSQVVLTMTNMDPVDTATYYCARSVVTGGYYYEGMDVWGQGTTVTVSS
light: SYVLTQPPSVSVAPGQTARITCGGNNIGSESVHWYQQKPGQAPVLVVDDSDRPSGIPERFSGSNSGNTATLTISRVEAGDEADYYCQVHDGNSDHVVFGGGTKLTVLGQPKANPTVTLFPPSSEELQANKATLVCLISDFYPGAVTVAWKADGSPVKAGVETTKPSKQSNNKYAASSYLSLTPEQWKSHRSYSCQVTHEGSTVEKTVAPTECS
B2: Ab0314: IgG4 PE; 16H7 VL (N25S, D91T, N93E); 16H7 VH (M34V, I83T, D109E) (antibody)
VH: B1 VH with W52H
light: SYVLTQPPSVSVAPGQTARITCGGSNIGSESVHWYQQKPGQAPVLVVYDDSDRPSGIPERFSGSNSGNTATLTISRVEAGDEADYYCQVWTGESDHVVFGGGTKLTVLGQPKANPTVTLFPPSSEELQANKATLVCLISDFYPGAVTVAWKADGSPVKAGVETTKPSKQSNNKYAASSYLSLTPEQWKSHRSYSCQVTHEGSTVEKTVAPTECS
B3: Ab0365: IgG4 PE; 16H7 VL (N25A, D49T, D50E, D91A, N93S); 16H7 VH (M34V, I83T, D109E) (antibody)
VH: B1 VH with W52H
light: B2 light with S25A, D49T, D50E, T91A, E93S
B4: Ab0303: IgG4 PE; 16H7 VL (N25S, D50E, D91T); 16H7 VH (M34V, I83T, D109E) (antibody)
VH: B1 VH with W52H
light: B2 light with D50E, E93N
B5: Ab0304: IgG4 PE; 16H7 VL (D49Y, D50E, D91T); 16H7 VH (M34V, I83T, D109E) (antibody)
VH: B1 VH with W52H
light: B2 light with S25N, D49Y, D50E, E93N
B6: Ab0305: IgG4 PE; 16H7 VL (N25S, D49Y, D50E, D91T); 16H7 VH (M34V, I83T, D109E) (antibody)
VH: B1 VH with W52H
light: B2 light with D49Y, D50E, E93N
B7: Ab0308: IgG4 PE; 16H7 VL (N25S, D49Y, N93E); 16H7 VH (M34V, I83T, D109E) (antibody)
VH: B1 VH with W52H
light: B2 light with D49Y, T91D
B8: Ab0310: IgG4 PE; 16H7 VL (N25S, D50E, N93E); 16H7 VH (M34V, I83T, D109E) (antibody)
VH: B1 VH with W52H
light: B2 light with D50E, T91D
B9: Ab0311: IgG4 PE; 16H7 VL (D49Y, D50E, N93E); 16H7 VH (M34V, I83T, D109E) (antibody)
VH: B1 VH with W52H
light: B2 light with S25N, D49Y, D50E, T91D
B10: Ab0315: IgG4 PE; 16H7 VL (D49Y, D91T, N93E); 16H7 VH (M34V, I83T, D109E) (antibody)
VH: B1 VH with W52H
light: B2 light with S25N, D49Y
B11: Ab0316: IgG4 PE; 16H7 VL (N25S, D49Y, D91T, N93E); 16H7 VH (M34V, I83T, D109E) (antibody)
VH: B1 VH with W52H
light: B2 light with D49Y
B12: Ab0317: IgG4 PE; 16H7 VL (D50E, D91T, N93E); 16H7 VH (M34V, I83T, D109E) (antibody)
VH: B1 VH with W52H
light: B2 light with S25N, D50E
B13: Ab0318: IgG4 PE; 16H7 VL (N25S, D50E, D91T, N93E); 16H7 VH (M34V, I83T, D109E) (antibody)
VH: B1 VH with W52H
light: B2 light with D50E
B14: Ab0375: IgG4 PE; 16H7 VL (Y48del, D95E, W90F, S1C, S94C); 16H7 VH (M34V, F54W, I83T, D109E) (antibody)
VH: B1 VH with W52H, F54W
light: B1 light with S1C, H89F, S93C, D94E

Target: T2, FGFR1c and co-receptor beta-Klotho (KLB) (Homo sapiens, UniProt P11362+Q86Z14)
T2 construct: host or cells: iLite FGF21 Assay Ready Cells (HEK293)
T2 sequence (P11362 22-820 isoform P11362-2 limits assumed, one chain of several): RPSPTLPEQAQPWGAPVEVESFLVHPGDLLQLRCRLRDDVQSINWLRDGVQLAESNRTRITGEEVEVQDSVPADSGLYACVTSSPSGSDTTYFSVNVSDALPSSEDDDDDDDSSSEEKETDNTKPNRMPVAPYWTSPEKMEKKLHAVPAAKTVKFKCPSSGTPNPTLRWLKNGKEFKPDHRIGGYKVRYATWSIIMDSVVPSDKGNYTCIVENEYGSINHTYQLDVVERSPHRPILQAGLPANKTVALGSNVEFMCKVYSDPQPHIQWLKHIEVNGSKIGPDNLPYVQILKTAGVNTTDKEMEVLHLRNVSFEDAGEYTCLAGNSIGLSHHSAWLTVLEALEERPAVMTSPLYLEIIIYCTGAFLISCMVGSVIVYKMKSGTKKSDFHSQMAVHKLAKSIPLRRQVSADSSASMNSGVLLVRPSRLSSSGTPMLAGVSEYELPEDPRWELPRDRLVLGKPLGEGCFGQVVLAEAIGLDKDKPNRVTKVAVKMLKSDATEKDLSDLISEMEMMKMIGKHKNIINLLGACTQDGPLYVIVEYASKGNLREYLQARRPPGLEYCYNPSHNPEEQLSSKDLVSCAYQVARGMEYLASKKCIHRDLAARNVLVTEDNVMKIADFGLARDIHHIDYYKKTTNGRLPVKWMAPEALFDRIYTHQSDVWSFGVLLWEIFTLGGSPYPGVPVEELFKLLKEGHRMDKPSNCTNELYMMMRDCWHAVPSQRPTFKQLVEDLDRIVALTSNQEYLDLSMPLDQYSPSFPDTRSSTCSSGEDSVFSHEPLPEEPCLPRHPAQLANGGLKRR
Assay: Luciferase reporter gene assay (iLite FGF21 Assay Ready Cells), FGF21-like signaling
Assay type: cell-based
Details: Luciferase gene reporter assay, mean, n=3-7

| Molecule | HEK293 hFGFR1c + KLB (iLite) Emax |
| --- | --- |
| B1 | 490.05% |

Tested on: not listed separately
Assay: In vivo PK in transgenic humanized FcRn mice (Tg32)
Details: 0.3 mg/kg single IV, plasma, noncompartmental analysis
Protocol: In vivo PK studies were conducted in transgenic humanized FcRn mice (Tg32). For these studies, no GLP compliance was claimed.

| Molecule | t½ |
| --- | --- |
| B2 | 18 days |

Target: T1, human beta-Klotho
Assay: SPR off-rate screening of antibody mutants (human beta-Klotho captured by anti-His antibody)
Assay type: binding
Details: mean, n=3
Outline: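 First, anti-His antibody is immobilized on a CM5 chip by amine coupling and used to capture beta-Klotho. Next, each antibody mutant is injected at 50 nmol/L for 240 sec, then dissociation is followed for 300 sec. Finally, kd is fitted with a single exponential.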

| Molecule | koff human KLB |
| --- | --- |
| B3 | invalid fit |
| B4 | invalid fit |
| B5 | invalid fit |
| B6 | invalid fit |
| B7 | 0.0013 s⁻¹ |
| B8 | 0.00116 s⁻¹ |
| B9 | 0.0013 s⁻¹ |
| B2 | 0.000402 s⁻¹ |
| B10 | invalid fit |
| B11 | invalid fit |
| B12 | invalid fit |
| B13 | invalid fit |
| B14 | no binding |
